Data taken from patent US12135332B2, “Mutant human estrogen receptor-α and methods of use thereof” (Case Western Reserve University, priority 2018, dated 2024).

Target: ERE-DNA
Test: Fluorescence anisotropy DNA-binding assay
Details: 6-FAM-labeled ERE-DNA 20 nM, E2-bound hERα^CDE; read-out: DNA-binding affinity Kd
From the text: FIGS. 8(a)-(e) are graphs relating to the purification and characterization of recombinant hERα. […] FIGS. 8(b) and (c) show the purification of hERα^CDE, specifically size exclusion chromatography of hERα^CDE in the absence (b) or presence (c) of ERE-DNA. Shown are the absorbance at 260 nm and 280 nm of hERα^CDE in the presence of estradiol and a coactivator TIF2 peptide. […] Data of 2.8-μM hERα^CDE in the presence of E2 were used as a saturation level and free 20-nM DNA data as a baseline. […] The binding of the hERα to a coactivator TIF2 peptide (sequence […]) (SEQ ID NO: 2) in the presence of E2 and ERE-DNA was measured by surface plasmon resonance (SPR). […]
To further assess the impact of this substitution on the receptor's ability to bind ERE-DNA, a biochemical DNA-binding assay was performed by detecting fluorescence anisotropy of 6-carboxyfluorescein-labeled ERE-DNA in the presence of increasing concentrations of the E2-bound hERα^CDE. […]
The fluorescence-conjugated double-strand ERE-DNA was prepared by annealing 6-FAM (6-carboxyfluorescein) 5′-labeled strands (5′-[…]-3′ (SEQ ID NO: 44) and 5′-[…]-3′ (SEQ ID NO: 45); IDT, Inc) in a buffer containing 10 mM CHES (pH 9.5), 50 mM KCl, 50 mM NaCl, 4 mM MgCl2, 50 mM arginine, 50 mM glutamic acid, 5 mM TCEP, 5% glycerol with 10 μM ZnCl2, and 10 μM E2. […]

Kd: 9.2 nM
B1: WT: recombinant wild-type human ERα segment with DBD and LBD, residues E181-P552 (protein)
chain: ETRYCAVCNDYASGYHYGVWSCEGCKAFFKRSIQGHNDYMCPATNQCTIDKNRRKSCQACRLRKCYEVGMMKGGIRKDRRGGRMLKHKRQRDDGEGRGEVGSAGDMRAANLWPSPLMIKRSKKNSLALSLTADQMVSALLDAEPPILYSEYDPTRPFSEASMMGLLTNLADRELVHMINWAKRVPGFVDLTLHDQVHLLECAWLEILMIGLVWRSMEHPGKLLFAPNLLLDRNQGKCVEGMVEIFDMLLATSSRFRMMNLQGEEFVCLKSIILLNSGVYTFLSSTLKSLEEKDHIHRVLDKITDTLIHLMAKAGLTLQQQHQRLAQLLLILSHIRHMSNKGMEHLYSMKCKNVVPLYDLLLEMLDAHRLHAP
